These results are taken from paper PMC4786724, “NdhM Subunit Is Required for the Stability and the Function of NAD(P)H Dehydrogenase Complexes Involved in CO2 Uptake in Synechocystis sp. Strain PCC 6803* ^([image sbox.jpg])” (The Journal of Biological Chemistry, 2015).

Experiment [1] concerns the target T1, NdhI-His6 (Synechocystis sp. PCC 6803, UniProt P26525 1-193).
T1 construct: NdhI subunit of NDH-1, Synechocystis sp; PCC 6803; fragment containing ndhI cloned into pET28a; also called His-tagged NdhI; source: E. coli BL21(DE3) pLysS, purified (nickel column)
Nature of the experiment: pull-down; GST-NdhM on glutathione-Sepharose 4B resin as bait, His-tagged Ndh subunits as prey; 2 h at 4 °C in 20 mM Tris-HCl pH 7.5, 100 mM NaCl, 0.1 mM EDTA, 0.2% Triton, 10% glycerol; washed five times with 300 mM NaCl, 0.5% Nonidet P-40; eluates blotted with anti-His antibody. The note with it: both partners purified.

Experiment [2] has as its target T2, NdhH-His6 (Synechocystis sp. PCC 6803, UniProt P27724 1-394).
T2 construct: NdhH subunit of NDH-1, Synechocystis sp; PCC 6803; fragment containing ndhH cloned into pET28a; also called His-tagged NdhH; source: E. coli BL21(DE3) pLysS, purified (nickel column)
T2 sequence (looked up): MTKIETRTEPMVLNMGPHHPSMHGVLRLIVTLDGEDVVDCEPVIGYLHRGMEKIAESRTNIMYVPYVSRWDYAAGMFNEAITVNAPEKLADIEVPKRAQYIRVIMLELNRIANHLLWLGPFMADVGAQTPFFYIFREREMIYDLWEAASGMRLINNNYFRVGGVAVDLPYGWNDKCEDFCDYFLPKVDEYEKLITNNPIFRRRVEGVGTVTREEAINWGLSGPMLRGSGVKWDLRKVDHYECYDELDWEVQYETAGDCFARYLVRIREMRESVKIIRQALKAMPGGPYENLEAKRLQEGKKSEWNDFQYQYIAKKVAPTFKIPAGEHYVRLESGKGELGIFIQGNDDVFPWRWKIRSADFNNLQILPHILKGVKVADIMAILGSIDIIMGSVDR
The description is as above. The settings on record: both partners purified.

T1 sequence (P26525 whole entry, the tested form may be a part): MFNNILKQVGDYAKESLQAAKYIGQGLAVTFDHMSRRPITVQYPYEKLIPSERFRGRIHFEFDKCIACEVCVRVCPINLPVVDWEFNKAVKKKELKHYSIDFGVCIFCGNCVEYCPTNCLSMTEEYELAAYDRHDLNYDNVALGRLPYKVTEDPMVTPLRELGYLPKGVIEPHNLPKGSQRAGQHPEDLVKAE

B1: GST-NdhM (natural protein, Synechocystis sp. PCC 6803, UniProt P74338 1-121, looked up)
chain: MLVKSTTRHVRIFSAEVQGNELIPSNNVLTMDVDPDNEFVWNEDALQQVYRRFDELVESYSGEDLTDYNLRRIGSDLEHFIRDLLQAGKVSYNLDCRVLNYSMGLPKVENQETAGKYWLDN
notes: NdhM subunit of NDH-1, Synechocystis sp; PCC 6803, gene slr1623 (ndhM); fragment containing ndhM cloned into pGEX-4T-1; also called recombinant NdhM fused with GST; NdhM fused to GST; source: E. coli BL21(DE3) pLysS, purified (glutathione-Sepharose 4B column)
Turning to B1, the binding result in experiment [1] and in experiment [2] was “binds” in each case.
